Experimental data taken from patent US12295997B2, “Prostate neoantigens and their uses” (Janssen Biotech, Inc., priority 2020, dated 2025).

Key:
[1] = target: HLA-A*24:02 (Homo sapiens, UniProt P04439, D101N/D140Y/D185E/E176V/E190D/F33S/G103R/G107R/I119L/I121M/I306V/K335N/L105A/L180Q/L300P/N151K/N90K/Q86E/Q94H/R106L/R138H/R89G/T104I/T345S/V100E/W191G/Y123F); assay: In vitro binding of neoantigens to class I MHC (UV peptide exchange, HLA class I ELISA); conditions: 100% = same binding as positive control peptide
Method: (§1) The 9 mer peptides identified by bioinformatics analysis were analyzed for their binding propensities to 6 common HLA class I alleles (HLA-A*01:01, A*02:01, A*03:01, A*24:02, B*07:02, B*08:01). The principle of the method is briefly described below and consists of two parts, one involving exchange of peptide with a positive control induced by Ultraviolet (UV) radiation, and the second is an enzyme immunoassay to detect stable HLA-peptide and empty HLA complexes.
(§2) HLA-bound peptides are critical for the stability of the HLA complex. A conditional HLA class I complex was stabilized by an UV-labile peptide utilizing a different peptide (Pos) for each HLA (Pos: HLA-A*01:01: […](SEQ ID NO: 409), HLA-A*02:01: […] (SEQ ID NO: 410), HLA-A*03:01: […] (SEQ ID NO: 411), HLA-A*24:02: […] (SEQ ID NO: 412), HLA-B*07:02: […] (SEQ ID NO: 413), HLA-B*08:01: […] (SEQ ID NO: 414), which could be cleaved by UV irradiation when bound to the HLA molecule. Upon cleavage, the resulting peptide fragments dissociated from the HLA class I complex since their length was insufficient to bind stably to HLA. Under the conditions in which peptide cleavage was performed (neutral pH, on melting ice), the peptide-free HLA complex remained stable.
(§3) The exchange efficiency between the peptide of interest and Pos was analyzed using an HLA class I ELISA. The combined technologies allowed the identification of ligands for an HLA molecule of interest which are potentially immunogenic.
(§4) Exchange control peptide Pos was a high affinity binder to the relevant HLA class I allele while exchange control peptide Neg was a non-binder. The UV control represented UV-irradiation of conditional HLA class I complex in the absence of a rescue peptide.
(§5) The HLA class I ELISA is an enzyme immunoassay based on the detection of beta2-microglobulin (B2M) of (peptide-stabilized) HLA class I complexes. To this end streptavidin was bound onto polystyrene microtiter wells. After washing and blocking, HLA complex present in exchange reaction mixtures or ELISA controls was captured by the streptavidin on the microtiter plate via its biotinylated heavy chain. Non-bound material was removed by washing. Subsequently, horseradish peroxidase (HRP)-conjugated antibody to human B2M was added. The HRP-conjugated antibody binds only to an intact HLA complex present in the microtiter well because unsuccessful peptide exchange results in disintegration of the original UV-sensitive HLA complex upon UV illumination. In the latter case B2M was removed during the washing step. After removal of non-bound HRP conjugate by washing, a substrate solution was added to the wells. A coloured product formed in proportion to the amount of intact HLA complex present in the samples. After the reaction was terminated by the addition of a stop solution, absorbance was measured in a microtiter plate reader. The absorbance was normalized to the absorbance of an exchange control peptide (represents 100%). Suboptimal HLA binding of peptides with a moderate to low affinity for HLA class I molecules can also be detected by this ELISA technique (Rodenko, B et al. (2006) Nature Protocols 1: 1120-32).
(§6) Peptides that had 10% or greater exchange efficiency in one of the 6 HLA alleles were considered for further immunogenicity testing and analysis.
(§7) Binding of select neoepitopes to HLA-A*01:01, HLA-A*02:01, HLA-A*03:01, HLAA*24:02, HLAAB*07:02 and HLA-B*08:01 was evaluated using the assay described in Example 1. […] As a criterion for further evaluation, peptides with an exchange rate of at least 10% with the corresponding Pos peptide for at least one of the 6 HLA alleles that we considered for further evaluation. The exchange rates with the allele specific Pos peptides, of the 24 neoantigens so identified are summarized below in Table 17. Higher percentages correspond to stronger binding to the HLA allele. […]

[2] = target: HLA-B*07:02 (Homo sapiens, UniProt P01889); assay: as above; conditions: 100% = same binding as positive control peptide
Method: as §1, §2, §3, §4, §5, §6, §7

[3] = target: HLA-A*01:01 (Homo sapiens, UniProt P04439, A114D/A174V/A182V/D101N/D185E/E176A/E190D/L180R/Q94H/R68K/S129P/T187R/V100A/V91M/W191G); assay: as above; conditions: 100% = same binding as positive control peptide
Method: as §1, §2, §3, §4, §5, §6, §7

[4] = target: HLA-A*02:01 (Homo sapiens, UniProt P04439, D140Y/D185E/D98H/E176V/E277Q/G131W/G231S/I119V/I121R/I166T/I218V/L300P/L318F/N151K/N90K/P208A/P217A/Q86G/Q94H/R138H/R169H/T345S); assay: as above; conditions: 100% = same binding as positive control peptide
Method: as §1, §2, §3, §4, §5, §6, §7

[5] = target: HLA-A*03:01 (Homo sapiens, UniProt P04439); assay: as above; conditions: 100% = same binding as positive control peptide
Method: as §1, §2, §3, §4, §5, §6
Binding of select neoepitopes to HLA-A*01:01, HLA-A*02:01, HLA-A*03:01, HLAA*24:02, HLAAB*07:02 and HLA-B*08:01 was evaluated using the assay described in Example 1. […] As a criterion for further evaluation, peptides with an exchange rate of at least 10% with the corresponding Pos peptide for at least one of the 6 HLA alleles that we considered for further evaluation. The exchange rates with the allele specific Pos peptides, of the 24 neoantigens so identified are summarized below in Table 17. Higher percentages correspond to stronger binding to the HLA allele.

[6] = tested on: CD8+ T cells in PBMCs from human patients with metastatic castrate-resistant prostate cancer; assay: Patient PBMC restimulation assay (in vitro immunogenicity, TNFα/IFNγ intracellular flow cytometry); assay type: cell-based; conditions: 9-mer peptide; for Maximum frequency of TNFα^+IFNγ^+CD8^+ T cells (Percent): greatest frequency among all tested PBMC donors; for Immunogenic: patient PBMC restimulation
Method: PBMCs from human patients with metastatic castrate-resistant prostate cancer were thawed using media (RPMI 1640 supplemented with Glutamax, 10% HI FBS, and 1× Sodium Pyruvate). Cells were counted and plated in a 96 well round bottom microplate at a concentration of 250,000 viable cells per well. Lyophilized peptides were solubilized in 100% DMSO and diluted in media to 10 μg/mL. Neoantigen peptides were added in equal volume to PBMCs for a final concentration of 5 μg/mL. CEF Peptide Pool “Plus” (Cellular Technologies, Ltd.) was utilized as a positive control and DMSO at the same final concentration as the experimental peptides was utilized as a negative control. Human IL-15 (Peprotech) was added to all wells at final concentration of 10 ng/mL.
Plates were incubated at 37° C. (5% CO2) for a total of 13 days. Media was refreshed every 2 days with IL-15 (10 ng/mL final concentration) and IL-2 (R&D systems, 10 IU/mL final concentration). On day 12, PBMCs were re-stimulated with identical experimental peptides or controls, at same concentration as peptide stimulation on Day 1. After 1-hour incubation, protein Inhibitor Cocktail (eBioscience) was added to every well and plate was incubated overnight.
On day 13, cells were stained for intracellular flow cytometry analysis. The cells were washed with PBS and stained with Live/Dead Fixable Aqua Dead Cell stain (Thermo-Fisher). Following the live/dead stain, cells were blocked using Biotin-Free Fc Receptor Blocker (Accurate Chemical & Scientific Corp). Extracellular cellular flow panel ([…] per well in 50 μL) consisted of CD3 PerCP-Cy5.5 (Biolegend), CD4 BV421 (Biolegend), and CD8 APC-Cy7 (Biolegend). After extracellular staining, cells were fixed using Foxp3/fTranscription Factor Staining Buffer Set (eBioscience) and stained for intracellular proteins (1:50 dilution) using TNFα FITC (R&D Systems) and IFNγ BV785 (Biolegend). Cells were washed and resuspended in stain buffer and analyzed using a BD Celesta flow cytometer.
Flow cytometry cell staining analysis was completed using FlowJo v10. Cells were gated on live, singlet, CD3+ cells. The CD8+ T cells were analyzed for TNFα/IFNγ expression and the frequency of double positive TNFα/IFNγ CD8+ T cells was recorded. Responses were assessed to be positive when the frequency of double positive TNFα/IFNγ CD8+ T cells due to stimulation with an experimental peptide was increased greater than or equal to 2-fold over the DMSO only negative control for that patient. Peptides were analyzed in 1 to 7 patient samples.
The 9 mer fragments shown in Table 13 were assessed for their ability to activate T cells using the Patient PBMC restimulation assay described in Example 1 using TNFα and IFNγ production by CD8^+ T cells as a readout. Self-antigens shown in Table 15 were also used in the assays. […] PBMCs from ten patients were evaluated.

## P48 (VQPIARELYQFTFDLLI; listed as Homo sapiens) [Peptide P48]
[1]
  Exchange rate with allele specific Pos peptide, HLA-A*24:02: 0.1%
[2]
  Exchange rate with allele specific Pos peptide, HLA-B*07:02: 12.8%
[3]
  Exchange rate with allele specific Pos peptide, HLA-A*01:01: 4.3%
[4]
  Exchange rate with allele specific Pos peptide, HLA-A*02:01: 99.3%
[5]
  Exchange rate with allele specific Pos peptide, HLA-A*03:01: 4.4%
[6]
  Maximum frequency of TNFα^+IFNγ^+CD8^+ T cells (Percent): 0.220%
  Immunogenic: Yes

## P76 (YCMAAPMGL) [Peptide P76]
[1]
  Exchange rate with allele specific Pos peptide, HLA-A*24:02: −0.5%
[2]
  Exchange rate with allele specific Pos peptide, HLA-B*07:02: 91.5%
[3]
  Exchange rate with allele specific Pos peptide, HLA-A*01:01: 0.1%
[4]
  Exchange rate with allele specific Pos peptide, HLA-A*02:01: 85.9%
[5]
  Exchange rate with allele specific Pos peptide, HLA-A*03:01: 6%
[6]
  Maximum frequency of TNFα^+IFNγ^+CD8^+ T cells (Percent): 0.170%
  Immunogenic: Yes
